In paper PMC4631838, “Molecular architecture of the yeast Mediator complex” (eLife, 2015):

Experiments:
[1] = biological target: T1, Med5 (Nut1), Mediator Tail module subunit (S. cerevisiae, UniProt P53114 1-1132); experiment: cross-linking; BS3 (unlabeled, or 50:50 with 2H12-labeled BS3) on the purified native holoenzyme; 150 mM NaPO4, 150 mM KOAc, pH 7.5, 5% glycerol, 2 mM DTT; procedure A 2.7 mM reagent 120 min on ice; trypsin digest, LC-MS/MS, Protein Prospector; conditions: both partners purified
T1 construct: Med5 (Nut1), S. cerevisiae, endogenous; source: endogenous, S. cerevisiae CB010 double-tagged strain; within the purified native holoenzyme
T1 sequence (looked up): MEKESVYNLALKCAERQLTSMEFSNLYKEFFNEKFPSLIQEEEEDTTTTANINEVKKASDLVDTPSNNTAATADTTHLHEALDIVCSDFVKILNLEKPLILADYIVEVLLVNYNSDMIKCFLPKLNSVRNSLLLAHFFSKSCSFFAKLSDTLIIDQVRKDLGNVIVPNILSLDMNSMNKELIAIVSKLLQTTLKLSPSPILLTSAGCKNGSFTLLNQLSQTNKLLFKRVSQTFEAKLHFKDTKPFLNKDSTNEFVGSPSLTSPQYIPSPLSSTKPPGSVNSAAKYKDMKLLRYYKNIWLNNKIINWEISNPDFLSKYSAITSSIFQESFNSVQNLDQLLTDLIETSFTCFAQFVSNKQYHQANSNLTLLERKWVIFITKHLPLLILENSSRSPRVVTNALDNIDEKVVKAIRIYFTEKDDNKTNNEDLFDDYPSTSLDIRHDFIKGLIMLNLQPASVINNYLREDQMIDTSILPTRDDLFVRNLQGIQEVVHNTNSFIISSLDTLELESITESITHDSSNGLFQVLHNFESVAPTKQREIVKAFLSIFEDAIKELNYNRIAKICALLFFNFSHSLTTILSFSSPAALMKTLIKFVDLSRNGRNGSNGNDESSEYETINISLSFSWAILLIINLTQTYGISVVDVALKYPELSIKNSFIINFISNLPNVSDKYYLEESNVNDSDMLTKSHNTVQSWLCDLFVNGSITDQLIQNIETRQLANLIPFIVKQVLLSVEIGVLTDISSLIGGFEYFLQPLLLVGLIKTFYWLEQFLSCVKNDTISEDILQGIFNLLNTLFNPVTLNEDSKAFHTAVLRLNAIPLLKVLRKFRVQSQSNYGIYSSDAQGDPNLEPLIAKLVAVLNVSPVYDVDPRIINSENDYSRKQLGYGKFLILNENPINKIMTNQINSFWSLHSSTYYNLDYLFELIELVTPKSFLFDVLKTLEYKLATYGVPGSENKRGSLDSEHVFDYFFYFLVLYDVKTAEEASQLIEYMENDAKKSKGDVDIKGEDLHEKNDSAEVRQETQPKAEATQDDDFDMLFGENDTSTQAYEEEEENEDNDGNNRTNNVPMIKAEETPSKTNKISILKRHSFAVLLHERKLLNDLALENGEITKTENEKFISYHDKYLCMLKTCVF

[2] = biological target: T2, Med15 (Gal11), Mediator Tail module subunit (S. cerevisiae, UniProt P19659 1-1081); experiment: as above; conditions: both partners purified
T2 construct: Med15 (Gal11), S. cerevisiae, endogenous; source: endogenous, S. cerevisiae CB010 double-tagged strain; within the purified native holoenzyme
T2 sequence (looked up): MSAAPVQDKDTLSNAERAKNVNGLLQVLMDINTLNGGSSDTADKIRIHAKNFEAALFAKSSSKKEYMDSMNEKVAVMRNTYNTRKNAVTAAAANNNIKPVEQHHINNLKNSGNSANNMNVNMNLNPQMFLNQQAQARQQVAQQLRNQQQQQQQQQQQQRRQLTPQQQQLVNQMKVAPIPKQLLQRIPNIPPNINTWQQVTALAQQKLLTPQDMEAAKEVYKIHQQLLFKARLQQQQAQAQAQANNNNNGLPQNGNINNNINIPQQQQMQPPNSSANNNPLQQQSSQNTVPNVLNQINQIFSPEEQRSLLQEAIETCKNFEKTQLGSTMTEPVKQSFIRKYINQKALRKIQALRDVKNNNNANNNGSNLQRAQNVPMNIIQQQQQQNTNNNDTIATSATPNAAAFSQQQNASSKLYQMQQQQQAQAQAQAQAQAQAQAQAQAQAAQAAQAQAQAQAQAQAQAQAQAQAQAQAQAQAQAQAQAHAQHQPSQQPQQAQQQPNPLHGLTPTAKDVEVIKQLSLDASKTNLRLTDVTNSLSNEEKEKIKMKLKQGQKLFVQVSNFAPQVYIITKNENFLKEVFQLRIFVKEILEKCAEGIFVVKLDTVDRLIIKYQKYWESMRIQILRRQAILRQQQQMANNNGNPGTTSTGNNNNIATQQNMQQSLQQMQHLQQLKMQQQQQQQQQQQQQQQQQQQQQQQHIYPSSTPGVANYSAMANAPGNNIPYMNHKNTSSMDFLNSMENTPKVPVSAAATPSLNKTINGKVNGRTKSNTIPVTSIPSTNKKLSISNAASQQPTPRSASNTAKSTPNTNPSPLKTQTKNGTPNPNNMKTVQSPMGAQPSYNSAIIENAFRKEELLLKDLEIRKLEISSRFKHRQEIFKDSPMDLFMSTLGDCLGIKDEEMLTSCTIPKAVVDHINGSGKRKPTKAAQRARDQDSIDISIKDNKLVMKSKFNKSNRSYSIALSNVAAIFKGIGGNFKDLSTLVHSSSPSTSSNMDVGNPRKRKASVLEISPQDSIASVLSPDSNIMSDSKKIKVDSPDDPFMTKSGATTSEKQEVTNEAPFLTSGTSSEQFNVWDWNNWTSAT

B1: Med16 (Sin4), Mediator Tail module subunit (natural protein, S. cerevisiae, UniProt P32259 1-974, looked up)
chain: MMLGEHLMSWSKTGIIAYSDSQSSNANICLTFLESINGINWRFHTPQKYVLHPQLHEVQYQESSSTLSTHSTTTSVNGSTTAGVGSTPNFGGNSNKSPPQFFYNISSIHWNNWFSLPGDMLAVCDELGNMTMLITGQRPDRATTYEKLTMVFQDNVYKIYNHVMPLKPVDKLKPMNIERKQTRKEYNTSILEFRWLTSSKSVIVSQFCAFDSSSNTYRSRAQQVPPYGVYHPPFIKYACLAIRKNGQIDFWYQFSNSKDHKKITLQLLDTSNQRFKDLQWLEFARITPMNDDQCMLITTYSKLSKNISFYKLHVNWNLNATKPNVLNDPSLKIQFILSTTLDPTDDEGHVLKLENLHVVSKSSIEKDPSPEILVLYNVCDTSKSLVKRYRLAPTQLSAEYLVILKPDLNIDRNNSTNQIFQSRRYNLRRHSDIVLDKKVTLITSEMFDAFVSFYFEDGTIESYNQNDWKLETERLISQSQLGKFKNIIASPLSAGFNYGKLPLPPSVEWMKVSPSMCGVIVKQYNKKWPQFYAAVQKNYADPEKDSINATALAFGYVKSLHKQISAEDLTIAAKTHILRISFLDRKRAKEFITTLLKSLYSFFNISPDAPKEIMDKIITSRPLQKIMLLQLELGSCFSQENIEEMARVILYLKNVLFAFNGVARNFHFAIEQISNNSNQQQNPKLFQTIFSKQDLIHSLIPVAKWFVKFITYLTQEILILINDPTNKEYTLVHGIFGAKMSRTLILSILNEIKKVTQIVAKFPETSYPILNESSTFLKLVLSESPVDFEKFETFLVDVNNKFIALCEQQPSQEREFSLLVKAEIPPEYAKVGDFLLQYANNAVISHANAAAVYFADTSGLKISNSEFFNPEIFHLLQPLEEGLIIDTDKLPIKNRTSKSFSKLLYDDVTCDKLSVSEISDGKLKRCSRCGSVTRAGNIISSDKTIVPTSIQTKRWPTMYTRLCICSGMLFEMDG
notes: Med16 (Sin4), S. cerevisiae, endogenous; source: endogenous, S. cerevisiae CB010 double-tagged strain; within the purified native holoenzyme
B1: binds [1]; binds [2].
